US10500249B2, “Compositions and methods for preventing or treating diseases, conditions, or processes characterized by aberrant fibroblast proliferation and extracellular matrix deposition” (MOERAE MATRIX, INC., priority 2014, dated 2019)

Legend:
Experiment in all cases: Kinase Profiling Assay
Assay type in all cases: biochemical
Settings in all cases: 100 μM
Hck (h) = target: T1, Hck (h) (Homo sapiens, UniProt P08631)
T1 construct: purchased Millipore
Method in brief: (§1)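 Each kinase activity was measured in duplicate. Phosphorylation of a positively charged substrate with radiolabeled phosphate from ATP was captured on a negatively charged filter, counted by scintillation and expressed relative to a 100% activity control. MK2 inhibitory peptides were screened for specificity across 266 human kinases.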

Abl(T315I) (h) = Abl(T315I) (h) (Homo sapiens, UniProt P00519, T315I)
Method in brief: as §1

PKCε (h) = target: T2, PKCε (h) (Homo sapiens, UniProt Q02156)
T2 construct: purchased Millipore
T2 sequence (Q02156 1-737): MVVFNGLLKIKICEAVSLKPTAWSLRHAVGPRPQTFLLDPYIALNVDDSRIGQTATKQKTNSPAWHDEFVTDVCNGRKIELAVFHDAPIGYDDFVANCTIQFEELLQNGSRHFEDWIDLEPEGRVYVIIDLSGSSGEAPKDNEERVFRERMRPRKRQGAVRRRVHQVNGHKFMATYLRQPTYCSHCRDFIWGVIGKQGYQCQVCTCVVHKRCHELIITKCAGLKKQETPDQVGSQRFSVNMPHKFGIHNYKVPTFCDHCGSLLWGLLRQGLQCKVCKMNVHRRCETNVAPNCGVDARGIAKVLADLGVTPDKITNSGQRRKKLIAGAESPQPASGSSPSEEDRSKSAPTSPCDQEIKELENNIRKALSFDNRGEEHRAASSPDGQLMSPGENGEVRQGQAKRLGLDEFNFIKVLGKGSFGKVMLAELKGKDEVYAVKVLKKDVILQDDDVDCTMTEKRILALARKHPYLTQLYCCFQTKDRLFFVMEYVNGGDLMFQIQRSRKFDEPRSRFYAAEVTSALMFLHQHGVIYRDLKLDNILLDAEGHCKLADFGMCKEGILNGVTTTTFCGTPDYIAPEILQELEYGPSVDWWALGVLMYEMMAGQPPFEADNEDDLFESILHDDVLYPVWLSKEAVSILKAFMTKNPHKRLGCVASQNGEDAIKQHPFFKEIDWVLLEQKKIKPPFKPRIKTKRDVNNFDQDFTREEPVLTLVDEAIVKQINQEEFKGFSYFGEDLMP
Method in brief: as §1

JNK3 (h) = JNK3 (h) (Homo sapiens, UniProt P53779)
Method in brief: as §1

PRAK (h) = target: T3, PRAK (h) (Homo sapiens, UniProt Q8IW41)
T3 sequence (Q8IW41 1-473): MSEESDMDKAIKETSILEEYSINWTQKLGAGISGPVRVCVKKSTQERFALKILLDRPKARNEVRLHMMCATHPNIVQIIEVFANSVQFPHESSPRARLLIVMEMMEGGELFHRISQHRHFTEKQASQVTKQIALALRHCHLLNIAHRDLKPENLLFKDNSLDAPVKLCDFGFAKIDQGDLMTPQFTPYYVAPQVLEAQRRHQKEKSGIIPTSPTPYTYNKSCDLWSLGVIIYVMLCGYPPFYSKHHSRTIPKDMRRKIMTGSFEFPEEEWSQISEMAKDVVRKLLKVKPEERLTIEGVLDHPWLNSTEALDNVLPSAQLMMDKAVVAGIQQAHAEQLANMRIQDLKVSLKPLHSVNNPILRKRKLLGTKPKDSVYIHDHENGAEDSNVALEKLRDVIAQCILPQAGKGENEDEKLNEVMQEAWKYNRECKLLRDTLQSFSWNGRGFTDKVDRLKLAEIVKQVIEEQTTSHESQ
Method in brief: as §1

SAPK2b (h) = SAPK2b (h) (Homo sapiens, UniProt Q15759)
Method in brief: as §1

PAK5 (h) = target: T4, PAK5 (h) (Homo sapiens, UniProt Q9P286)
T4 construct: purchased Millipore
Method in brief: as §1

FGFR1 (h) = FGFR1 (h) (Homo sapiens, UniProt P11362)
Method in brief: as §1

TAK1 (h) = target: T5, TAK1 (h) (Homo sapiens, UniProt O43318)
T5 sequence (O43318 with tags, fused parts or gaps limits assumed): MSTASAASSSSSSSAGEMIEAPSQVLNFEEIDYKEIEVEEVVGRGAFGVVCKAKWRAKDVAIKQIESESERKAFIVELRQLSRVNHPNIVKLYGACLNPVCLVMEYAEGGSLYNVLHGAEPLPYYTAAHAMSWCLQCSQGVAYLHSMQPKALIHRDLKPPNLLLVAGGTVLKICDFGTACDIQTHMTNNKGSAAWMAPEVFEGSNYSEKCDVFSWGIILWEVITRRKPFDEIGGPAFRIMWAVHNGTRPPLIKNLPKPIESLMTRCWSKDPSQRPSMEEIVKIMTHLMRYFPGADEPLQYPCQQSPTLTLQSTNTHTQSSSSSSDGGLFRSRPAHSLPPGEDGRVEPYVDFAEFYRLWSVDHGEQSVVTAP
Method in brief: as §1

Rsk3 (h) = Rsk3 (h) (Homo sapiens, UniProt Q15349)
Method in brief: as §1

IRR (h) = target: T6, IRR (h) (Homo sapiens, UniProt P14616)
T6 construct: purchased Millipore
Method in brief: as §1

T4 sequence (Q9P286 whole entry): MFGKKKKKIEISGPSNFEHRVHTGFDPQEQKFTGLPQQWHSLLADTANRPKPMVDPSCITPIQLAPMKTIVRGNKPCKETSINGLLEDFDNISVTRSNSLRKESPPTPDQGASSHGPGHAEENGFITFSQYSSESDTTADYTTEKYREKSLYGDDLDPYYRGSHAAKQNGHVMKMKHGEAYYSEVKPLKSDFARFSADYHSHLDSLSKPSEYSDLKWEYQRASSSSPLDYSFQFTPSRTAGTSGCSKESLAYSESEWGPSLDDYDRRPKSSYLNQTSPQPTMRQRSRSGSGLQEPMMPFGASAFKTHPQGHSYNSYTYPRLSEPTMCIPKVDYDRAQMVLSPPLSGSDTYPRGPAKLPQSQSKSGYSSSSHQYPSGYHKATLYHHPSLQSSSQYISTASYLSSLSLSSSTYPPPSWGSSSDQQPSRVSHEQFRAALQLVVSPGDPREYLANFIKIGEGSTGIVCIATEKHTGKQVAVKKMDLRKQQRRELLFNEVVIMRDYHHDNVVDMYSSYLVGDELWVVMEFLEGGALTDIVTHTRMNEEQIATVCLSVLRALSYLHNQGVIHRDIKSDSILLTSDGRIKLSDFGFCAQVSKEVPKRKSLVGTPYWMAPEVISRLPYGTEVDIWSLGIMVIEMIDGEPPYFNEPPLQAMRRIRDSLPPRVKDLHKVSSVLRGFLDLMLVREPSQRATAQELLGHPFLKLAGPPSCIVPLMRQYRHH
T6 sequence (P14616 27-1297): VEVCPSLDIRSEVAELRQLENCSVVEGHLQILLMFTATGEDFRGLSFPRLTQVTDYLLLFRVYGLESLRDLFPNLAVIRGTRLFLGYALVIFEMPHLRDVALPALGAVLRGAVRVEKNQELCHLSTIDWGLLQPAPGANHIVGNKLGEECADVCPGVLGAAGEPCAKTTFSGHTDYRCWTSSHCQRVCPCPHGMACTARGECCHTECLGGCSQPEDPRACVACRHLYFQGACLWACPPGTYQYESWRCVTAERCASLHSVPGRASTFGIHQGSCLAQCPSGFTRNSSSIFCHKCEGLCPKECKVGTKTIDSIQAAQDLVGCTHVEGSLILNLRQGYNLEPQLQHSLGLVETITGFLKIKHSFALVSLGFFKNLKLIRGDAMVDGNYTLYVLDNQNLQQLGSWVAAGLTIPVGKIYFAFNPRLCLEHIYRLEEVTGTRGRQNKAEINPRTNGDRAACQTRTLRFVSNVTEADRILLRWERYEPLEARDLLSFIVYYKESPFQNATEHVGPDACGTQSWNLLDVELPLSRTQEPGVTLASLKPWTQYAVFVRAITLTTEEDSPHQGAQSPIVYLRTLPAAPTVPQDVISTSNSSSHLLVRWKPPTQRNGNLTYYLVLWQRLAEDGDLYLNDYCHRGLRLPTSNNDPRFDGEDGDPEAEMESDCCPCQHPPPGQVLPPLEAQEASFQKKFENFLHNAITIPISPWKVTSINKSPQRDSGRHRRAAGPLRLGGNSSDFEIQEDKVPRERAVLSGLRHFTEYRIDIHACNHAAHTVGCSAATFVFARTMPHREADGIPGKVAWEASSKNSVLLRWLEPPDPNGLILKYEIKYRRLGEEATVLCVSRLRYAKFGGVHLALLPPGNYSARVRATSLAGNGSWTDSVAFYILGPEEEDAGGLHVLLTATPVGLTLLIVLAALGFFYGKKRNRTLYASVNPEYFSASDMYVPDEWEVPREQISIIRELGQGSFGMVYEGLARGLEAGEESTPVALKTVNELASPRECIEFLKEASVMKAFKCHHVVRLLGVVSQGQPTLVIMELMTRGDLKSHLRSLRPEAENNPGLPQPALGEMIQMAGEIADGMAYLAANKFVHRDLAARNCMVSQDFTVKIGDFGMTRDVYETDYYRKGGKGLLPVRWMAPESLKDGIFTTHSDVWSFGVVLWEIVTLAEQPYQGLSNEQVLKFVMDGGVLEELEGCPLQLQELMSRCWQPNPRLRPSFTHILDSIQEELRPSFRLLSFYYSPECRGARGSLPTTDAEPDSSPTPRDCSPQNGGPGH
JNK3 (h), sequence (P53779 whole entry): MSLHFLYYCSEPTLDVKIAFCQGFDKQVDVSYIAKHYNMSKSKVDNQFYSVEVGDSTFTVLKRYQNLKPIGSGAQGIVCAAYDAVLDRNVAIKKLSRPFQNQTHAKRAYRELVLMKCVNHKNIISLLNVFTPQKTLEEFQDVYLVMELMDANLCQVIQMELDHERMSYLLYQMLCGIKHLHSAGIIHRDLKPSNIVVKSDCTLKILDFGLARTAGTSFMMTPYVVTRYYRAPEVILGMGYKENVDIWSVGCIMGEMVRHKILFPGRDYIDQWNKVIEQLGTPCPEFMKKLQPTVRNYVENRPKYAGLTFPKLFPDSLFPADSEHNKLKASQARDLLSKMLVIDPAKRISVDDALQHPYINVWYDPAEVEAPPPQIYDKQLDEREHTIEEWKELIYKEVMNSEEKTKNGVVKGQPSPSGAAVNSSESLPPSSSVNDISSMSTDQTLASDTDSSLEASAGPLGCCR
FGFR1 (h), sequence (P11362 22-822): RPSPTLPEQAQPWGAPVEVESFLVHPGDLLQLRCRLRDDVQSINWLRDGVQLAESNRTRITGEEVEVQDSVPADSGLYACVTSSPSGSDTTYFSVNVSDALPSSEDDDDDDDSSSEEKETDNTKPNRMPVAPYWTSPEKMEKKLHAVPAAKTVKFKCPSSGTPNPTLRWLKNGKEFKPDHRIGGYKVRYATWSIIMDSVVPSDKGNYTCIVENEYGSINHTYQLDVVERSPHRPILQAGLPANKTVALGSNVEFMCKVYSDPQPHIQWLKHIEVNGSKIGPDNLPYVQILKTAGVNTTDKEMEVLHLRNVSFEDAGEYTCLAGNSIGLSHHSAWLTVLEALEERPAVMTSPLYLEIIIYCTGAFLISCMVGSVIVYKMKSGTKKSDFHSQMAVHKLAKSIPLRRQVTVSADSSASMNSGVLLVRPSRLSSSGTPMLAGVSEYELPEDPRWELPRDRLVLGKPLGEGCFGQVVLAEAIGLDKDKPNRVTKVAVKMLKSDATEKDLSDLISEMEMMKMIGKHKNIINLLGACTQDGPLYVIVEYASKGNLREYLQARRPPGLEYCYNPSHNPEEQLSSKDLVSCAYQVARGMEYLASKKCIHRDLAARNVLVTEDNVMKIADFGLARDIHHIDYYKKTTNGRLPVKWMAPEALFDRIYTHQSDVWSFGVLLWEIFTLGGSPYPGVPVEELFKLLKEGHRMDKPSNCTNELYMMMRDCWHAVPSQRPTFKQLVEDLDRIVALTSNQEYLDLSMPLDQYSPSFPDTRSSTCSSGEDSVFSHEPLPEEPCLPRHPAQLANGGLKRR
Rsk3 (h), sequence (Q15349 whole entry): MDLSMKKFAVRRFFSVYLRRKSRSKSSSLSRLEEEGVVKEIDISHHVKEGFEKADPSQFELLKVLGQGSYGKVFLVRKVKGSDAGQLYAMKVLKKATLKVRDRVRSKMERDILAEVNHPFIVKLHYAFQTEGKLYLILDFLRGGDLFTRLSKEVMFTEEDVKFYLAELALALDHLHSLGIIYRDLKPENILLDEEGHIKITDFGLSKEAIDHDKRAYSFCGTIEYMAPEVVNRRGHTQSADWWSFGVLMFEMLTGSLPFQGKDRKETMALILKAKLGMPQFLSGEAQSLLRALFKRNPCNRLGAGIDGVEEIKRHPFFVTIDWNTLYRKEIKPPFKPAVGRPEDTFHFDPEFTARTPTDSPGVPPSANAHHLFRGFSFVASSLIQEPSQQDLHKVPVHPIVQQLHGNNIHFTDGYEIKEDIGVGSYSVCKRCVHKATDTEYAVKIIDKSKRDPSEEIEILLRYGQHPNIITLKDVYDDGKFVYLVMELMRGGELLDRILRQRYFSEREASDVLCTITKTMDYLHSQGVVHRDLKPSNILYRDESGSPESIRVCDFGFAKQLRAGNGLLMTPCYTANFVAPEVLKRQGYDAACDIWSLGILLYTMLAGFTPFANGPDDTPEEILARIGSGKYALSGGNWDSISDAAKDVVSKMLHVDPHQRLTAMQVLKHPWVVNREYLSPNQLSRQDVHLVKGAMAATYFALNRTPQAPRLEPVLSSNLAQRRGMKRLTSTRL
T1 sequence (P08631 whole entry): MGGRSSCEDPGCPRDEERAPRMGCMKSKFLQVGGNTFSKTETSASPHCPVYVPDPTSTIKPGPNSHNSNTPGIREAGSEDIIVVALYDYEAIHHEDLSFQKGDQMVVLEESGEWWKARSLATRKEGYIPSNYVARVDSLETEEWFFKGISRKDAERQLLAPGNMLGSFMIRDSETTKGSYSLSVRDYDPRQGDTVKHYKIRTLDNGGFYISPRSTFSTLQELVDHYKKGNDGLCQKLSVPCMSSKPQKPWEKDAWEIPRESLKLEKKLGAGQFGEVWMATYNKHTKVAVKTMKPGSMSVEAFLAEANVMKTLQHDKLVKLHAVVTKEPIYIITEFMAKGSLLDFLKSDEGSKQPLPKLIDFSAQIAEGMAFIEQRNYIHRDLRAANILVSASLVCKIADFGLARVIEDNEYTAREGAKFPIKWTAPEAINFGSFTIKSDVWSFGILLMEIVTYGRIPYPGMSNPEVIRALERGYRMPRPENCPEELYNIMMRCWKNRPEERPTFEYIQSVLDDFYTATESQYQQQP
SAPK2b (h), sequence (Q15759 whole entry): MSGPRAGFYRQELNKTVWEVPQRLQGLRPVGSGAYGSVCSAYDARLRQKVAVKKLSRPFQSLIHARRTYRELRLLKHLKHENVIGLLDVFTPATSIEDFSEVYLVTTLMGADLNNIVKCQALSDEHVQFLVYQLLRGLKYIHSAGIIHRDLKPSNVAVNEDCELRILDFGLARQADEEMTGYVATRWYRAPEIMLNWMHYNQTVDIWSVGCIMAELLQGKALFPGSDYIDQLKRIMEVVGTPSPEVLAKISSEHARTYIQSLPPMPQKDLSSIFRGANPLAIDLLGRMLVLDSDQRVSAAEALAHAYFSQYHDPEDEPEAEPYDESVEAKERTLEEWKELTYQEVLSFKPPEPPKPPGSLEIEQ

Sequence: FAKLAARLYRKALARQLGVAA [MMI-0300]
- % activity (Hck (h)): 72%
- % activity (Abl(T315I) (h)): 97%
- % activity (PKCε (h)): 79%
- % activity (JNK3 (h)): 89%
- % activity (PRAK (h)): 128%
- % activity (SAPK2b (h)): 81%
- % activity (PAK5 (h)): 110%
- % activity (FGFR1 (h)): 55%
- % activity (TAK1 (h)): 122%
- % activity (Rsk3 (h)): 76%
- % activity (IRR (h)): 8%

Sequence: HRRIKAWLKKIKALARQLGVAA (Mammalian) [MMI-0500]
- % activity (Hck (h)): 78%
- % activity (Abl(T315I) (h)): 16%
- % activity (PKCε (h)): 23%
- % activity (JNK3 (h)): 171%
- % activity (PRAK (h)): 95%
- % activity (SAPK2b (h)): 42%
- % activity (PAK5 (h)): 125%
- % activity (FGFR1 (h)): 18%
- % activity (Rsk3 (h)): 23%
- % activity (IRR (h)): 10%

Sequence: KAFAKLAARLYRKALARQLGVAA [MMI-0400]
- % activity (Hck (h)): 72%
- % activity (PKCε (h)): 59%
- % activity (JNK3 (h)): 70%
- % activity (PRAK (h)): 118%
- % activity (SAPK2b (h)): 82%
- % activity (FGFR1 (h)): 59%
- % activity (TAK1 (h)): 177%
- % activity (Rsk3 (h)): 71%
- % activity (IRR (h)): 8%

Sequence: YARAAARQARAKALNRQLGVA (Mammalian) [MMI-0200]
- % activity (Abl(T315I) (h)): 108%
- % activity (PKCε (h)): 98%
- % activity (JNK3 (h)): 90%
- % activity (SAPK2b (h)): 95%
- % activity (PAK5 (h)): 100%
- % activity (FGFR1 (h)): 97%
- % activity (TAK1 (h)): 124%
- % activity (IRR (h)): 69%
